# From the domain aggregation screens of Martell et al. (2025)
# Experiment: soluble fraction after stress (log2 fold change); higher = more stays soluble; pooled small domains, quantitative proteomics
# Conditions: stress: 75 degC
# 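Also: 20 min heating vs room temperature control held 20 min.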
row,Sequence,soluble fraction (log2)
1,HMVVVMNADAEADEIKRVKWNLEQMLFRTQVIYGVKRIVIGAIGDQREVDLSEIEQMPKVDKIVRISK,-2.24
2,HMVVVPDVKGLKIEEAAEFFKNNNLHYNVIDSVFSKDVEPGAIVELSPLAGSKVKEGRIVFITVNALTS,-1.12
3,HMVVVVELTENEKAVQDVLTKNEGSLEISDLKTKLELSGKQWDKALKGLAKHGITQVAKVDGVVTVSL,-0.381
4,HMVWMIEKDQSVILVNKLERIQVEALGKALENGNFGDRIRVINNKSGQKLLGIVESEKKIQIISKI,-2.92
5,HMVYLPGEEIPLKIIQEGKESGQGVGYLEDGTMVVVENGRRYLNQEVLVQVTKILQTNAGRLIFAVP,-2.6
6,HMVYLPSSIKNIPTKYGEMMVANFKMDELQANSKNGWVSMVISERREPSEKGATHYAYVNTY,0.484
7,HMVYNQYILTQSVRLREEPGISGRVIRLLETGTTVELVDTVVVNKDDYDWVWVKLSDGAVGWIIKSAIDI,-1.57
8,HMWDEMKDQKLVEALLLLREDERKLIYQHVFEERTFDDISRINGLPPYKVKGIYYYAIRKIRKWMG,-2.26
9,HMWGQDVLFTIDKKEFKGKLLEQSDKHTTFLPDGQKTPQKIPNRLIKEIHLGSNKIIDFGNDFLI,-0.19
10,HMWPDDAIALPTRDGQDVGGAQERTMLAFASGAAGIRTVEEINPDGSITRLRTRYGWPTFETEGARTAAAE,-0.0272
11,HMWTIDPLDWKTENADQIVEKVMSEAKENAIILLHDRYEASVEAALRIVDLLKEQGYTFVTADKLV,-0.154
12,HMWTKKELWNAIAKLPKKQRTVVMMRIAQNLPYKDISEITGMSIGSAKVNYHHAVNSLKQWLS,-0.746
13,HMWTPLVVAVLIGGTHRFGELRAAVGGITPKVLTETLRSMERDGLVVREQTPGVPPRVDYALTPLGA,-0.493
14,HMYAGTWISESGQWKYRNDDGSFAKGWFQDLDSRWYYFDANGHMLSDTLTPDGYRLGEDGAWVND,0.0742
15,HMYDESVFTGEYHYYYEKLSDDDKLIYRQIYAMMQKRMDGISLNTTDTDNVSRIQQFVLLDNPQF,-2.61
16,HMYDKKVFRLLFILNQLDSRKKVSTGELAKEFNVSPRTVQRDIVLLNTTGFPIISLEKGYHSFMEGFSLK,-1.19
17,HMYDPVNEIGRVLKKIRQERSLTLDNVAEITGVSKTMLGQIERGVSVPTISVLWKIAKGLQVSLSTLLNE,-3.24
18,HMYEGLPVTLIIDGRVIEANLAKANRDMAWLERELANSGVRSHHDVFFATLDSRGQLYYQVKN,-1.04
19,HMYELDIYPNPAIDKINVLLPSSTTLPVKVEIYDIMGKKVNSLLTTKKAFTIETDQFEKGIYFVKA,0.331
20,HMYELREGDVVSVRILSQTGQNSYIASFAGGRFSVTSERAFAPGTVFSASVSLKDGTLVLSPL,-3.6
21,HMYFEDEELDRFVGTPAGAYTEEDVEEFRDVLLSLDIEEVPSWVRSLQLRGIDFPETLRPELYLL,-3.01
22,HMYGQEVKVLGLFGDRAFIKVDEKSAVIRIGQSHQNVQLKSISNQKAILLVDNKDIALGLGDSYQSA,-1.69
23,HMYGVAEFDEKGNVLSIEEKPVQPKSNYAVVGLYFYPNKVVGVASGIKPSARGELEITTVNQTFLRDEELK,0.204
24,HMYHNKFADLAGFIAFNEKNEEIFTFGKYKGQNVKEVFQRDIGYYGWLQNADFPLYTKKVFTAIQLRSR,-2.44
25,HMYHPGFEALREVARQGSFIKAARALGISGPAVSKQIKSLEARLNLVLLHRTTRAVTLTEAGQRLTEILD,-2.14
26,HMYIDNVTIYDVGFNERIVHALERAGVKNLYDLSQMNFYQLQRIRNLGASSLEKVINRIHSYGILLKNES,-0.902
27,HMYIEKTAYINDTAVNVRKSATTDSDVIKVLALNTEITIIGEENDWYKVKSGNDIGYIAKRLVSDQKKE,-0.187
28,HMYIKYETVLQNITERIAALRKNGTLVLDGERTLAAEFDASRGTIRKAMRQLEENGTILREGYVTRILPE,-1.95
